According to the supplement of paper PMC12338614:
± gives the uncertainty stated by the source.

B1: library; numbered along this chain (parent)
chain: MEVVDPQQLGMFTEGELMSVGMDTFIHRIDSTEVIYQPRRKRAKLIGKYLMGDLLGEGSYGKVKEVLDSETLCRRAVKILKKKKLRRIPNGEANVKKEIQLLRRLRHKNVIQLVDVLYNEEKQKMYMVMEYCVCGMQEMLDSVPEKRFPVCQAHGYFCQLIDGLEYLHSQGIVHKDIKPGNLLLTTGGTLKISDLGVAEALHPFAADDTCRTSQGSPAFQPPEIANGLDTFSGFKVDIWSAGVTLYNITTGLYPFEGDNIYKLFENIGKGSYAIPGDCGPPLSDLLKGMLEYEPAKRFSIRQIRQHSWFRKKHPPAEAPVPIPPSPDTKDRWRSMTVVPYLEDLHGADEDEDLFDIEDDIIYTQDFTVPGQVPEEEASHNGQRRGLPKAVCMNGTEAAQLSTKSRAEGRAPNPARKACSASSKIRRLSACKQQ

Variants of: B1
Assay: STK11 functional score (HeLa growth suppression), rescaled enrichment; synonymous median = 1, nonsense median = 0 (normalised score)
Conditions: with HeLa; variant type: missense
Description: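 Deep mutational scan (TileSeq/POPCode codon randomisation) of full-length codon-optimised STK11 cDNA integrated at a Bxb1 landing pad (AAVS1) in HeLa cells. Restoring functional STK11 suppresses HeLa proliferation. Variant frequencies were measured by NGS before and after about two weeks of growth. The error-corrected enrichment log-ratio was rescaled so that synonymous median = 1 and nonsense median = 0, scores above 1 were compressed, and codon-level and three biological replicate scores were combined; error is the bootstrapped standard error. Scale: synonymous median = 1, nonsense median = 0; below 0.5 = damaging.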

Row | Variant | STK11 functional score
1 | Q112R | 0.64 ± 0.078
2 | Q112S | 1.1 ± 0.35
3 | Q305K | 0.543 ± 0.25
4 | Q305C | 1.27 ± 0.4
5 | P373M | 1.56 ± 0.17
6 | K108L | 1.1 ± 0.15
7 | Y362G | 1.15 ± 0.18
8 | P281F | 1.23 ± 0.2
9 | P281D | 1.45 ± 0.3
10 | Y253L | 1.27 ± 0.12
11 | E396L | 1.14 ± 0.28
12 | E396Q | 1.18 ± 0.64
13 | E396C | 1.26 ± 0.42
14 | E396T | 1.08 ± 0.61
15 | F148V | 0.674 ± 0.14
16 | P413M | 1.53 ± 0.17
17 | L72T | 1.44 ± 0.48
18 | V133T | 1 ± 0.41
19 | E349G | 0.983 ± 0.3
20 | E349W | 1.14 ± 0.5
21 | K235G | 1.28 ± 0.35
22 | G270L | 0.945 ± 0.13
23 | H168D | 0.0708 ± 0.12
24 | L45T | 1.27 ± 0.78

Row | Variant | STK11 functional score
25 | L45M | 1.25 ± 0.08
26 | P280S | 1.16 ± 0.34
27 | P280I | 1.36 ± 0.34
28 | E351T | 1.52 ± 0.18
29 | V390H | 0.912 ± 0.65
30 | S419A | 1.37 ± 0.38
31 | S419F | 1.46 ± 0.18
32 | R87L | 1.18 ± 0.15
33 | A241S | 0.863 ± 0.15
34 | S69H | 0.304 ± 0.095
35 | R106V | 1.6 ± 0.15
36 | V150Q | 0.265 ± 0.12
37 | T250L | 1.45 ± 0.1
38 | I99Q | 0.527 ± 0.62
39 | I99S | 0.869 ± 0.37
40 | I99V | 0.876 ± 0.11
41 | I99E | 1.65 ± 0.16
42 | S283D | 1.29 ± 0.4
43 | E342V | 1.46 ± 0.17
44 | H202V | 1.27 ± 0.26
45 | T363E | 1.6 ± 0.22
46 | Q152L | 0.195 ± 0.69
47 | M18W | 0.78 ± 0.076
48 | K62Y | 1.31 ± 0.49

Row | Variant | STK11 functional score
49 | K62Q | 1.56 ± 0.21
50 | K62W | 1.38 ± 0.43
51 | G15R | 1.4 ± 0.4
52 | R415V | 1.57 ± 0.28
53 | R415T | 0.914 ± 0.57
54 | F219A | 0.528 ± 0.14
55 | F219Q | 1.57 ± 0.25
56 | L85P | 1.41 ± 0.18
57 | D229Q | 1.49 ± 0.46
58 | L167I | 1.44 ± 0.25
59 | L167C | 1.13 ± 0.77
60 | H27A | 1.19 ± 0.11
61 | H27G | 1.54 ± 0.21
62 | E14F | 1.13 ± 0.088
63 | E14I | 1.4 ± 0.14
64 | E14K | 0.385 ± 0.59
65 | L160H | 0.212 ± 0.28
66 | L160S | 0.508 ± 0.1
67 | R425L | 1.4 ± 0.26
68 | Q7A | 1 ± 0.43
69 | Y49C | 1.01 ± 0.28
70 | L353V | 1.42 ± 0.31
71 | T32Y | 0.666 ± 0.85
72 | T32W | 1.52 ± 0.2

Row | Variant | STK11 functional score
73 | T32P | 1.48 ± 0.37
74 | S401R | 1.11 ± 0.38
75 | Q170R | 1.16 ± 0.33
76 | K329R | 0.535 ± 0.3
77 | K329I | 1.25 ± 0.46
78 | K329G | 1.35 ± 0.37
79 | Q371P | 1.3 ± 0.51
80 | Q371F | 1.12 ± 0.24
81 | P339Q | 1.52 ± 0.16
82 | T13V | 1.6 ± 0.25
83 | S240W | -0.126 ± 0.094
84 | N266T | 0.876 ± 0.28
85 | N266H | 1.29 ± 0.56
86 | K124S | 0.355 ± 0.12
87 | K175I | 0.589 ± 0.096
88 | L140F | -0.0987 ± 0.078
89 | R333D | 1.62 ± 0.25
90 | K423H | 0.899 ± 0.69
91 | R86L | 0.854 ± 0.11
92 | I274F | 1.13 ± 0.43
93 | I274C | 0.973 ± 0.19
94 | Q432Y | 1.63 ± 0.28
95 | T395E | 1.33 ± 0.25
96 | V63C | 1.4 ± 0.54

Row | Variant | STK11 functional score
97 | V63S | 1.27 ± 0.23
98 | R301L | 1.6 ± 0.16
99 | G135E | 1.45 ± 0.13
100 | D355S | 1.48 ± 0.18
101 | I361R | 1.53 ± 0.18
102 | K388D | 1.31 ± 0.46
103 | K388R | 1.54 ± 0.28
104 | S232P | 0.971 ± 0.44
105 | G276F | 0.884 ± 0.19
106 | G276I | 0.493 ± 0.26
107 | Q159K | 0.6 ± 0.18
108 | A410N | 1.32 ± 0.11
109 | A410Q | 1.21 ± 0.37
110 | D343Y | 1.29 ± 0.41
111 | A200D | 0.859 ± 0.28
112 | S422T | 0.705 ± 0.26
113 | S422V | 1.05 ± 0.16
114 | P294V | 1.36 ± 0.4
115 | P294G | 0.877 ± 0.15
116 | M139N | 0.949 ± 0.081
117 | I177G | -0.017 ± 0.094
118 | I177L | 0.956 ± 0.15
119 | G279Q | 1.32 ± 0.16
120 | N226K | 0.86 ± 0.31

Row | Variant | STK11 functional score
121 | T71A | 1.48 ± 0.31
122 | T71P | 0.376 ± 0.19
123 | T71V | 1.04 ± 0.34
124 | T71I | 1.11 ± 0.24
125 | K269H | 1.49 ± 0.22
126 | G408H | 1.63 ± 0.17
127 | S428N | 0.872 ± 0.25
128 | S428E | 1.63 ± 0.13
129 | I248E | 0.873 ± 0.49
130 | I248S | 0.859 ± 0.097
131 | Q302C | 1 ± 0.73
132 | I88M | 0.899 ± 0.094
133 | G251L | -0.144 ± 0.1
134 | G251S | 1.01 ± 0.2
135 | K81W | 0.565 ± 0.079
136 | K81Q | 0.882 ± 0.35
137 | M289Q | 0.0869 ± 0.082
138 | V95P | 1.65 ± 0.3
139 | V95Q | 1.46 ± 0.45
140 | V95G | 0.326 ± 0.15
141 | K403H | 1.53 ± 0.17
142 | C132L | 0.813 ± 0.2
143 | K97C | 0.937 ± 0.18
144 | N90G | 1.63 ± 0.19

Row | Variant | STK11 functional score
145 | N90P | 1.08 ± 0.3
146 | E120F | 1.52 ± 0.4
147 | E120Q | 1.16 ± 0.49
148 | K82H | 1.08 ± 0.22
149 | A43Q | -0.492 ± 0.15
150 | T230G | 0.522 ± 0.15
151 | V116W | 0.541 ± 0.079
152 | V116H | 1.18 ± 0.58
153 | K146H | 1.49 ± 0.46
154 | K146I | 0.185 ± 0.12
155 | C73L | 1.19 ± 0.13
156 | C73S | 1.38 ± 0.43
157 | C73A | 1.69 ± 0.36
158 | D359A | 1.4 ± 0.15
159 | D359S | 1.15 ± 0.22
160 | D359G | 1.36 ± 0.2
161 | V243F | 0.591 ± 0.095
162 | S59L | 1.56 ± 0.32
163 | M51Q | 1.66 ± 0.16
164 | E16A | 1.53 ± 0.46
165 | E291K | 1.28 ± 0.62
166 | V110P | 0.481 ± 0.081
167 | D141A | 1.01 ± 0.15
